Positions count from the first letter of the chain named. In names and notes the source's numbering stands. One block for each molecule: values may come before it.
What was measured:
eIF4E cap-binding site = molecular target: T1, eIF4E cap-binding site (Homo sapiens, UniProt P06730); assay: m^7GTP^FAM competitive fluorescence anisotropy assay; conditions: read-out: Competitive Anisotropy (kd, nM) m^7GTP^FAM, non-reducing conditions, 1:1 binding model, triplicate, Kds > 20,000 denoted non-binders
T1 construct: pET11d expression plasmid containing the full-length eIF4E clone; made in house; host or cells: E. coli Rosetta pLysS

[1] = molecular target: T2, eIF4E eIF4G interaction site (eIF4E:4G interface) (Homo sapiens, UniProt P06730); assay: eIF4G^FAM tracer peptide competitive fluorescence anisotropy assay; conditions: non-reducing conditions, 1:1 binding model, triplicate, Kds > 20,000 denoted non-binders, read-out: Competitive Anisotropy (kd, nM) eIF4AG^FAM
T2 construct: pET11d expression plasmid containing the full-length eIF4E clone; made in house; host or cells: E. coli Rosetta pLysS

[2] = molecular target: T3, LgBiT-eIF4E:SmBiT-VH-DIF^CAP-01 interaction (eIF4E cap-binding site) (Homo sapiens, UniProt P06730); assay: NanoBIT^CAP complementation assay in HEK293 cells; assay type: cell-based; conditions: HEK293 cells permeabilized with sub-CMC digitonin; read-out: IC50 for disruption of LgBiT-eIF4E with SmBiT-VH-DIF^CAP-01 interaction
T3 construct: expressed in transfected cells; host or cells: HEK293

PCNA = molecular target: T4, PCNA (Homo sapiens, UniProt P12004); assay: Anti-FLAG immunoprecipitation pull down with PCNA; assay type: cell-based; conditions: HEK293 cells
T4 construct: endogenous in cells; host or cells: HEK293
Method: Twenty-four hours prior to transfection or drugging, cells were seeded at a cell density of 1000.000 (HEK293) cells per well of a six-well plate (ThermoFisher Scientific). Transfections were performed using Lipofectamine 3000 (ThermoFisher Scientific) with either 2 μg or the indicated amount of plasmid vectors per well according to the manufacturer's instructions. After a 48-hour incubation period, the cell media was then removed and the cells washed with PBS saline. Cells were directly lysed in the wells with 300 μl of lysis buffer containing 20 mM Hepes pH 7.4, 100 mM NaCl, 5 mM MgCl2, 0.5% NP-40, 1 mM DTT, with protease (Roche) and phosphatase (Sigma-Aldrich) inhibitor cocktail sets added as outlined by the manufacturer's protocols. […] Beads were then washed four times with lysis buffer containing no protease or phosphatase inhibitors. This was then followed by the addition of Laemlee buffer (2×) and the beads boiled for 5 min at 95° C. Samples were centrifuged and the supernatant removed for western blot analysis.
Confluent HEK293FT cells were used to generate lentivirus for infection of target cells. Packaging cells were transfected using calcium phosphate transfection as described below. […]
Samples were resolved on midi or mini Tris-Glycine 4-20% gradient gels (Bio-Rad) according to the manufacturer's protocol. […] B-actin levels were measured to ensure equal loading.

eIF4E = molecular target: T5, eIF4E (Homo sapiens, UniProt P06730); assay: Direct fluorescence anisotropy titration of eIF4E against labelled tracers; conditions: 50 nM tracer, 1:1 binding model
T5 construct: pET11d expression plasmid containing the full-length eIF4E clone; made in house; host or cells: E. coli Rosetta pLysS

full-length human eIF4E [3] = molecular target: T6, full-length human eIF4E (human, UniProt P06730 2-217); assay: anti-FLAG immunoprecipitation from transfected HEK293 cells, western blot
T6 construct: mature; Used here for the purified full-length protein (anisotropy, ITC, crystals) and for endogenous eIF4E of HEK293 cells in pull-downs; also called cellular eIF4E

LgBiT-eIF4E = molecular target: T7, LgBiT-eIF4E (UniProt P06730 1-217); assay: NanoBit split-luciferase complementation in co-transfected HEK293 cells [CONT.) B]
T7 construct: Expressed in HEK293 cells; also called LgBiT fused eIF4E; not shown: LgBiT (18-kDa NanoLuc fragment, Promega NanoBit)

full-length human eIF4E [4] = molecular target: T6, full-length human eIF4E; assay: competitive fluorescence anisotropy, displacement of m7GTP^FAM from eIF4E
[5] = molecular target: T8, proliferating cell nuclear antigen (PCNA) (human, UniProt P12004 1-261); assay: anti-FLAG immunoprecipitation from transfected HEK293 cells, western blot
T8 construct: Used here for the purified protein (anisotropy) and for endogenous PCNA of HEK293 and A375 cells in anti-FLAG pull-downs

GST-tagged eIF4E = molecular target: T9, GST-tagged eIF4E (UniProt P06730 1-217); assay: GST pull-down on glutathione beads with GST-eIF4E, Coomassie stained SDS-PAGE
T9 construct: also called GST-eIF4E; not shown: glutathione S-transferase tag of pGEX-6P1

Molecule: Cn1c[n+]([C@@H]2O[C@H](COP(=O)(O)OP(=O)([O-])O)[C@@H](O)[C@H]2O)c2nc(N)[nH]c(=O)c21 [m^7GDP]
Kd (eIF4E cap-binding site): 201 ± 25.2 nM | Kd [1]: > 20000 nM | IC50 [2]: 34500 nM

Molecule: m^7GTP^5-FAM [m^7GTP^FAM]
Kd (eIF4E): 149 nM

Molecule: m^7GTP^BIOTIN
Kd (eIF4E cap-binding site): 34.7 ± 4 nM | Kd [1]: > 20000 nM

B1: FLAG-tagged VH-DIF^CAP-01 MA (M104A) (expressed in HEK293 cells) (designed binder)
VH: MSEVQLVESGGGLVQPGGSLRLSSAISGFSISSTSIDWVRQAPGKGLEWVARISPSSGSTSYADSVKGRFTISADTSKNTVYLQMNSLRAEDTAVYYTGRPLPEAGFFTNIPAMVDYRGQGTLVTVSSGAA
notes: also called VH-DIF^CAP-01 mutant (M104A); VH-DIF^CAP-Cntrl; not shown: C-terminal 3x FLAG tag of the pCDNA3.1 vector
binding result (full-length human eIF4E [3]): no binding

B2: SmBiT-VH-DIF^CAP-01 E103A (designed binder)
VH: B1 VH with E104A, A105M
notes: also called VH-DIF^CAP-01 EA fused to smBIT; not shown: SmBiT (11-amino-acid NanoLuc fragment)
binding result (LgBiT-eIF4E): no binding

B5: VH-S4 (expressed in HEK293 cells) (designed binder)
VH: MSEVQLVESGGGLVQPGGSLRLSSAISGFSISSTSIDWVRQAPGKGLEWVARISPSSGSTSYADSVKGRFTISADTSKNTVYLQMNSLRAEDTAVYYTGRVAKALNSRSPSFVVNTYSSIGFDYRGQGTLVTVSSGAA
binding result (full-length human eIF4E [3]): binds

Further lines, results first:

anti-FLAG pull down in complex with PCNA (PCNA): do not
Molecule: YVRPRLPHMSQFES [scrambled]

binding result (full-length human eIF4E [4]): no binding
B3: VH-DiF^CAP-01^Cntrl (purified, His-tagged) (designed binder)
VH: B1 VH
notes: also called VH-DIF^CAP-01 MA (M104A); not shown: C-terminal six-histidine tag from pET-22b(+)

binding result (LgBiT-eIF4E): no binding
B4: SmBiT-VH-DIF^CAP-01 M104A (designed binder)
VH: B1 VH
notes: also called VH-DIF^CAP-01 MA fused to smBIT; not shown: SmBiT (11-amino-acid NanoLuc fragment)

anti-FLAG pull down in complex with PCNA (PCNA): do not | binding result [5]: no binding
B6: negative control M4 (FLAG-tagged, expressed in HEK293 cells) (designed binder)
VH: B5 VH with R108S, I120F
notes: not shown: C-terminal 3x FLAG tag of the pCDNA3.1 vector

binding result (GST-tagged eIF4E): no binding
B7: VH-1C5^Scrambled (designed binder)
VH domain, His-tagged, purified: MSEVQLVESGGGLVQPGGSLRLSSAISGFSISSTSIDWVRQAPGKGLEWVARISPSSGSTSYADSVKGRFTISADTSKNTVYLQMNSLRAEDTAVYYTGRGSVLSVAFKPSVDSFSSFYNTNDYRGQGTLVTVSSGAA
notes: CDR3 loop of VH-1C5 scrambled; also called scrambled VH domain (negative control)

Source: patent publication US20250346630A1, “Engineering Peptides Using Peptide Epitope Linker Evolution” (AGENCY FOR SCIENCE, TECHNOLOGY AND RESEARCH, priority 2022, published 2025)
